“And” between values parts separate entries of the source, which are not always exact repeats. Equal values may be shown once.
Key:
[1] = biological target: Biotin-Cys-AKAP5c_(ILVF->SA) (human) (UniProt P24588); test: SPR
[2] = biological target: Biotin-Cys-AKAP5c (human) (UniProt P24588); test: SPR
[3] = biological target: Calcineurin (human PPP3CA / PPP3R1 heterodimer) (human) (UniProt Q08209); test: AUC

## Calcineurin (human PPP3CA / PPP3R1 heterodimer) (from UniProt Q08209 1-521; P63098 1-170) (complex)
[1]
  Kd of the one main surface site class: 100 nM and 1000 nM
[2]
  Kd of a further surface site class: 1000 to 10000 nM
  Kd of surface site class 1 (one or possibly two very similar sites): 10 to 100 nM
[3]
  Kd: 100000 nM
  percent heterotetramer: 8%
